Data: the supplement of paper PMC11208486

Test: specific initial activity, cyclohex-2-enone reduction (U mg-1); higher = more active
Description: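 Specific initial activity of purified ene reductases with 10 mM cyclohex-2-enone and 0.2 mM NAD(P)H in 50 mM sodium phosphate pH 7.4 with 0-45% (v/v) ethanol or methanol, at set reaction temperatures of 25-45 °C. NAD(P)H depletion was followed at 340 nm for 480 s, in triplicate.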

MSFVKDFKPQALGDTNLFKPIKIGNNELLHRAVIPPLTRMRALHPGNIPNRDWAVEYYTQRAQRPGTMIITEGAFISPQAGGYDNAPGVWSEEQMVEWTKIFNAIHEKKSFVWVQLWVLGWAAFPDNLARDGLRYDSASDNVFMDAEQEAKAKKANNPQHSLTKDEIKQYIKEYVQAAKNSIAAGADGVEIHSANGYLLNQFLDPHSNTRTDEYGGSIENRARFTLEVVDALVEAIGHEKVGLRLSPYGVFNSMSGGAETGIVAQYAYVAGELEKRAKAGKRLAFVHLVEPRVTNPFLTEGEGEYEGGSNDFVYSIWKGPVIRAGNFALHPEVVREEVKDKRTLIGYGRFFISNPDLVDRLEKGLPLNKYDRDTFYQMSAHGYIDYPTYEEALKLGWDKK
specific initial activity
Settings | co-solvent: ethanol | co-solvent: methanol
co-solvent concentration (% v/v): 0, reaction temperature 25 °C | 0.2 | 0.24
co-solvent concentration (% v/v): 0, reaction temperature 30 °C | 0.23 | 0.21
co-solvent concentration (% v/v): 0, reaction temperature 35 °C | 0.36 | 0.37
co-solvent concentration (% v/v): 0, reaction temperature 40 °C | 0.33 | 0.23
co-solvent concentration (% v/v): 0, reaction temperature 45 °C | 0.1 | 0.07
co-solvent concentration (% v/v): 5, reaction temperature 25 °C | 0.28 | 0.21
co-solvent concentration (% v/v): 5, reaction temperature 30 °C | 0.32 | 0.29
co-solvent concentration (% v/v): 5, reaction temperature 35 °C | 0.47 | 0.46
co-solvent concentration (% v/v): 5, reaction temperature 40 °C | 0.34 | 0.25
co-solvent concentration (% v/v): 5, reaction temperature 45 °C | 0.17 | 0.12
co-solvent concentration (% v/v): 10, reaction temperature 25 °C | 0.27 | 0.3
co-solvent concentration (% v/v): 10, reaction temperature 30 °C | 0.37 | 0.36
co-solvent concentration (% v/v): 10, reaction temperature 35 °C | 0.52 | 0.52
co-solvent concentration (% v/v): 10, reaction temperature 40 °C | 0.21 | 0.17
co-solvent concentration (% v/v): 10, reaction temperature 45 °C | 0.12 | 0.08
co-solvent concentration (% v/v): 15, reaction temperature 25 °C | 0.32 | 0.33
co-solvent concentration (% v/v): 15, reaction temperature 30 °C | 0.36 | 0.4
co-solvent concentration (% v/v): 15, reaction temperature 35 °C | 0.52 | –
co-solvent concentration (% v/v): 15, reaction temperature 40 °C | 0.09 | –
co-solvent concentration (% v/v): 15, reaction temperature 45 °C | 0.05 | –
co-solvent concentration (% v/v): 20, reaction temperature 25 °C | 0.36 | –
co-solvent concentration (% v/v): 20, reaction temperature 30 °C | 0.35 | –
co-solvent concentration (% v/v): 20, reaction temperature 35 °C | 0.32 | –
co-solvent concentration (% v/v): 20, reaction temperature 40 °C | 0.02 | –
co-solvent concentration (% v/v): 20, reaction temperature 45 °C | 0.02 | –
co-solvent concentration (% v/v): 25, reaction temperature 25 °C | 0.27 | –
co-solvent concentration (% v/v): 25, reaction temperature 30 °C | 0.21 | –
co-solvent concentration (% v/v): 25, reaction temperature 35 °C | 0.03 | –
co-solvent concentration (% v/v): 25, reaction temperature 40 °C | 0.01 | –
co-solvent concentration (% v/v): 25, reaction temperature 45 °C | 0.01 | –
co-solvent concentration (% v/v): 30, reaction temperature 25 °C | 0.15 | –
co-solvent concentration (% v/v): 30, reaction temperature 30 °C | 0.15 | –
co-solvent concentration (% v/v): 30, reaction temperature 35 °C | 0.02 | –
co-solvent concentration (% v/v): 30, reaction temperature 40 °C | 0.01 | –
co-solvent concentration (% v/v): 30, reaction temperature 45 °C | 0.02 | –
co-solvent concentration (% v/v): 35, reaction temperature 25 °C | 0.07 | –
co-solvent concentration (% v/v): 35, reaction temperature 30 °C | 0.03 | –
co-solvent concentration (% v/v): 35, reaction temperature 35 °C | 0.01 | –
co-solvent concentration (% v/v): 35, reaction temperature 40 °C | 0.01 | –
co-solvent concentration (% v/v): 35, reaction temperature 45 °C | 0.03 | –
co-solvent concentration (% v/v): 40, reaction temperature 25 °C | 0.02 | –
co-solvent concentration (% v/v): 40, reaction temperature 30 °C | 0.02 | –
co-solvent concentration (% v/v): 40, reaction temperature 35 °C | 0.01 | –
co-solvent concentration (% v/v): 40, reaction temperature 40 °C | 0.01 | –
co-solvent concentration (% v/v): 40, reaction temperature 45 °C | 0.01 | –
co-solvent concentration (% v/v): 45, reaction temperature 25 °C | 0.01 | –
co-solvent concentration (% v/v): 45, reaction temperature 30 °C | 0.04 | –
co-solvent concentration (% v/v): 45, reaction temperature 35 °C | 0.02 | –
co-solvent concentration (% v/v): 45, reaction temperature 40 °C | 0.01 | –
co-solvent concentration (% v/v): 45, reaction temperature 45 °C | 0.02 | –
